According to US6713610:

Key:
human recombinant IL-8 [1] = target: T1, human recombinant IL-8 (human, UniProt P10145 28-99); assay: BIAcore SPR, IL-8 immobilized (134 RU surface), hybridoma supernatant as analyte
T1 construct: also called hIL8; h-IL-8
T1 sequence (looked up): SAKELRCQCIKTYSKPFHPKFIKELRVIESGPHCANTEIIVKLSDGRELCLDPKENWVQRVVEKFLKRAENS

human recombinant IL-8 [2] = target: T1, human recombinant IL-8; assay: BIAcore SPR, IL-8 immobilized (81 RU surface), hybridoma supernatant as analyte

Kd (human recombinant IL-8 [1]): 0.196 nM
koff (human recombinant IL-8 [1]): 0.000384 s⁻¹
kon (human recombinant IL-8 [1]): 1.95e+06 M⁻¹ s⁻¹
Kd (human recombinant IL-8 [2]): 0.142 nM
koff (human recombinant IL-8 [2]): 0.000817 s⁻¹
kon (human recombinant IL-8 [2]): 5.76e+06 M⁻¹ s⁻¹
B1: I8K4.2 (antibody, V domains shown)
VH: SLTCAVYGGSFSGYYWTWIRQPPGKGLEWIGEIIHHGNTNYNPSLKSRVSISVDTSKNQFSLTLSSVTAADTAVYYCARGGAVAAFDYWGQGTLVTVSS
VL: TQSPSSLSASVGDRVTITCQASQDISNYLNWYQQKAGKAPKVLIYAASNLEAGVPSRFSGSGSGTDFTFTISSLQPEDIATYYCQHYDNLLTFGGGTKVEIKR
